# Experimental data: patent publication US11311625B2, “Peptide-based multiple-drug delivery vehicle” (priority 2015, dated 2022)
# Read-outs that look alike come from different tables or passages of the source.
# Key:
# [1] = tested on: HEK-293 (Human Embryonic Kidney 293) cell line; assay: XTT growth inhibition assay, HEK-293 negative control; type: cell-based
# Protocol: The cytotoxicity of the peptide-drug conjugates was determined by measuring the mitochondrial enzyme activity, using a commercial XTT assay kit. All samples contained DMSO at final concentration <0.05%. Cells were cultured in micro wells at 2-4×10^4 cells/ml and incubated for 24 h or 72 h. After the first incubation period the cultures were washed and then given fresh medium containing different concentrations of the tested substances. At the end of the second incubation, XTT reagent was added and the cells were re-incubated for additional 2-4 h. During that time the absorbencies in the wells were measured with a TECAN Infinite M200 plate reader at both 480 and 680 nm. […]
# In order to compare the cytotoxic effects of the conjugates relative to the free drugs, the in vitro cytotoxic effect of the drug bioconjugates 1a-e was determined on SSTR2 overexpressed HCT 116 human colorectal carcinoma, H1299 human non-small cell lung carcinoma and TRAMP C2 human prostate cancer cell lines. […]
# FIGS. 13A-13D present the results of the XTT growth inhibition assay conducted for conjugates 1a-e. […] After the treatment, growth inhibition was measured using the XTT assay: The culture medium was replaced by a new one, and then the XTT reagent was added. The wells were incubated for 2-4 hrs. after which the optical density (OD) was measured at 480 and 680 nm. […]
# [2] = tested on: HCT 116, H1299, TRAMP C2 and HEK cell lines; assay: XTT growth inhibition assay, statements over all tested cell lines; type: cell-based, human; details: tested cell lines including HEK
# Protocol: The cytotoxicity of the peptide-drug conjugates was determined by measuring the mitochondrial enzyme activity, using a commercial XTT assay kit. All samples contained DMSO at final concentration <0.05%. Cells were cultured in micro wells at 2-4×10^4 cells/ml and incubated for 24 h or 72 h. After the first incubation period the cultures were washed and then given fresh medium containing different concentrations of the tested substances. At the end of the second incubation, XTT reagent was added and the cells were re-incubated for additional 2-4 h. During that time the absorbencies in the wells were measured with a TECAN Infinite M200 plate reader at both 480 and 680 nm. The difference between these measurements was used for calculating the % Growth Inhibition (GI) in test wells compared to two controls: cells that were exposed to the medium and solvent, and those that were exposed to a solvent-free medium. All the tests were done in quadruplicates. Each experiment was conducted twice.
# In order to compare the cytotoxic effects of the conjugates relative to the free drugs, the in vitro cytotoxic effect of the drug bioconjugates 1a-e was determined on SSTR2 overexpressed HCT 116 human colorectal carcinoma, H1299 human non-small cell lung carcinoma and TRAMP C2 human prostate cancer cell lines. The SSTR2 low-expressed HEK-293 (Human Embryonic Kidney 293) cell line was used as a negative control. The study was elaborated over a concentration range of 1-10 μM.
# FIGS. 13A-13D present the results of the XTT growth inhibition assay conducted for conjugates 1a-e. Growth inhibition effect of drug-conjugates versus free drugs was studied on three cell lines with an over-expression of SSTR2 (FIG. 13A. HCT 116; FIG. 13B. H1299; FIG. 13C. TRAMP C2) against the SSTR2 low expression cell line (FIG. 13D) HEK as negative control. All the cell lines were seeded and allowed to adhere in the wells, after which they were treated with the different compounds in increasing concentrations for 24 and 72 hr. After the treatment, growth inhibition was measured using the XTT assay: The culture medium was replaced by a new one, and then the XTT reagent was added. The wells were incubated for 2-4 hrs. after which the optical density (OD) was measured at 480 and 680 nm. Percentage of growth inhibition for each compound was calculated by comparison of the treated culture versus a control culture (free of any compound). The result shown for each concentration point represents the mean±standard error calculated from two different experiments. In each experiment the compounds were tested in quadruplicates.
# [3] = Chemo-stability and drug release of 9a and CLB in buffers at pH 2, 5 and 7.4 (LC-MS); type: physicochemical; details: for half-life at 0.04 mg/mL: buffer, read-out: degradation t1/2 (converted)
# Protocol: Stock solutions chemo-stability studies were prepared by dissolving 5 mg of the tested compound in 5000 μl of DMSO.
# Incubation procedure: Aqueous stability was determined at pH 2, 5 and 7.4. Aliquots (100 μl) of stock solution were diluted to a total of 2.5 mL with the desired buffer and then incubated at 37° C. During the incubation period (up to 160 h) 250 μL portions were drawn at different time intervals, filtered and analyzed by LC-MS.
# Peptidyl delivery systems loaded with anticancer drugs are expected to reach their site of action with minimal degradation. The PDS should be stable enough to be absorbed by cancer cells and only then deliver its toxic cargo. Chemo-stability and bio-stability studies may give us a background check for the endurance of our compact peptidyl DDS under the different conditions it is expected to encounter in a potential animal test. To that end, samples of 9a were incubated at pH 2, mimicking stomach conditions, at pH 5 mimicking the microenvironment in tumors, and at physiological pH 7.4, all at 37° C. Aliquots from the stock solutions were extracted at different time intervals and analyzed by LC-MS following the decrease in concentration of 9a (i.e., chemical degradation) and the formation of the dihydroxy derivative 11. In addition, the direct release of the different drugs was also followed based on the increase in the concentration of CLB, AZA and CAMP over time. In this analysis samples of 9a, 11, CLB, AZA and CAMP were used as references. Overall, the HPLC trace presents a very complex mixture of metabolites which could not be exhaustively characterized. Scheme 9 below presented the molecular structure 11.
# [4] = tested on: HEK293 and TRAMP C2 cell lines; type: cell-based, human
# Protocol: The cytotoxicity of the conjugates was determined by measuring the mitochondrial enzyme activity, using a commercial XTT assay kit. All samples contained DMSO at a final concentration <0.05%. Cells were cultured in micro wells at 2-4×10^4 cells/mL and incubated for 24 h or 72 h at 37° C. After the first incubation period of 24 h the cultures were washed and then given a fresh medium containing different concentrations of the tested substances. At the end of the second incubation, XTT reagent was added and the cells were re-incubated for additional 2-4 h. During that time the absorbencies in the wells were measured with a TECAN Infinite M200 ELISA reader at both 480 and 680 nm. […]
# The in vitro activity of 9a was determined on human embryonic kidney 293 (HEK293) cells and human prostate cancer TRAMP C2 cell lines in order to compare the cytotoxicity of 9a relative to the three selected free drugs. […] The cytotoxicity of 9a was determined by measuring the mitochondrial enzyme activity of the different cell lines after incubation with the different substances for 24 h and 72 h. The viability factor (% of surviving cells) of the cell cultures was calculated relative to a control sample incubated with the vehicle only, considered as 100% viability. […]
# FIGS. 19A-19D present the results of the viability assay (% surviving cells) of the cell cultures calculated relative to the control, 100% viability. […]
# [5] = Bio-stability of 9a in murine liver homogenate (LH); type: in vitro ADME, mouse
# Protocol: Preparation of the LH and assay: Mice were sacrificed by CO2 inhalation euthanasia. The livers were removed, minced, washed three times in cold PBS buffer and homogenized in Tris-HCl, pH 7.4 buffer (wt/3 vol.) by dozen strokes in a Potter-Elvehjem glass tissue grinder. The tissue homogenate was centrifuged at 4° C., 14000 rpm, 20 min. The supernatant was carefully collected (LH) and used immediately or else stored in liquid nitrogen. The concentration of protein was measured using the BCA protein assay with bovine serum albumin as a standard.
# Assay incubation procedure: Incubations were conducted in an incubator oven set at 37° C. Each incubation tube contained 2 mL homogenate samples (equivalent to 6 mg total protein of mouse LH). The samples were prepared by adding 50 μL of stock solution to the LH at the beginning of the incubation period. Aliquots (100 μL) of the LH mixture were removed after 10, 30, 60, 90, 120, and 180 min. immediately quenched with 2.5 volumes of ethanol, and centrifuged at 14000 rpm for 15 min. The supernatants were collected, filtered and analyzed by LC-MS.
# In order to get a biologically relevant picture of the release sequence of the different drugs, the bio-stability of 9a in murine liver homogenate (LH) was studied. Examination of the degradation rate of 9a, accompanied by cleavage of free drugs, was carried out following the LC-MS trace at different time intervals using premade authentic samples as reference signals.
# [6] = tested on: human embryonic kidney 293 (HEK293) cells; type: cell-based
# Protocol: (§1) The cytotoxicity of the conjugates was determined by measuring the mitochondrial enzyme activity, using a commercial XTT assay kit. All samples contained DMSO at a final concentration <0.05%. Cells were cultured in micro wells at 2-4×10^4 cells/mL and incubated for 24 h or 72 h at 37° C. After the first incubation period of 24 h the cultures were washed and then given a fresh medium containing different concentrations of the tested substances. At the end of the second incubation, XTT reagent was added and the cells were re-incubated for additional 2-4 h. During that time the absorbencies in the wells were measured with a TECAN Infinite M200 ELISA reader at both 480 and 680 nm. The difference between these measurements was used for calculating the % viability in test wells compared to two controls: cells that were exposed to the medium and solvent, and those which were exposed to a solvent-free medium. All the tests were done in triplicate. Each experiment was conducted twice.
# (§2) The in vitro activity of 9a was determined on human embryonic kidney 293 (HEK293) cells and human prostate cancer TRAMP C2 cell lines in order to compare the cytotoxicity of 9a relative to the three selected free drugs. […] The cytotoxicity of 9a was determined by measuring the mitochondrial enzyme activity of the different cell lines after incubation with the different substances for 24 h and 72 h.
# [7] = tested on: human prostate cancer TRAMP C2 cell lines; type: cell-based
# Protocol: as §1, §2
compound,measurement,setting,value
"CC[C@@]1(O)C(=O)OCc2c1cc1n(c2=O)Cc2cc3ccccc3nc2-1 [CPT, Camptothecin]",cytotoxic effect,[1],toxic
same,IC50 values,[2],low μM range
"CC[C@@]1(OC(=O)NCCCC[C@H](NC(=O)CCCc2ccc(N(CCCl)CCCl)cc2)C(=O)NCCCC[C@H](NC(=O)Oc2c(OC)cc([C@@H]3c4[nH]c5ccccc5c4C[C@H]4COC(=O)N43)cc2OC)C(=O)O)C(=O)OCc2c1cc1n(c2=O)Cc2cc3ccccc3nc2-1 [9a, Lys(AZA)-Lys(CBL)(CAMP)]",half-life at 0.04 mg/mL,"[3]; pH 2, 37° C.",2 h
same,half-life at 0.04 mg/mL,"[3]; pH 5, 37° C.",1.5 h
same,release of the three drugs,[3]; pH 2,none of the three drugs appeared to be released intact or at all
same,appearance of free AZA,[3]; pH 5,not detected
same,maximum concentration of released CAMP,[3]; pH 5,34 nM
same,period in which released CAMP decays completely,[3]; pH 5,≤ 80 h
same,time at which CLB could be first detected,[3]; pH 5,38 h
same,time to maximum concentration of released CAMP,[3]; pH 5,21 h
same,concentration of released CLB,"[3]; pH 5, after 100 h",≤ 44 nM
same,free CLB,[3]; pH 7.4,not detected
same,maximum concentration plateau of released AZA,[3]; pH 7.4,12 nM
same,time at which AZA concentration starts to rise above base-line,[3]; pH 7.4,20 h
same,time at which CAMP could be detected,[3]; pH 7.4,75 h
same,time to maximum concentration of released CAMP,[3]; pH 7.4,100 h
same,time to maximum concentration plateau of released AZA,[3]; pH 7.4,40 h
same,cytotoxic effect / relative cytotoxic activity,"[4]; 0.1-10 μM, both cell lines",comparable level to the tested free drugs
same,presence of free AZA,[5],could not be detected
same,time to concentration plateau of released CAMP,[5],30 min
same,time to steady state plateau of released CLB,[5],80 min
same,drug release in LH,[5]; 37° C.,quick release of CLB and CAMP
"COc1cc([C@@H]2c3[nH]c4ccccc4c3C[C@H]3COC(=O)N32)cc(OC)c1O [AZA, Azatoxin, reference compound]",cytotoxic effect / relative cytotoxic activity,[4],most active drug
same,surviving cells,[6],less than 10%
same,surviving cells,[7],less than 10%
same,stability of free drug in LH,[5],stable
